The results in this text go back to US20090215878.

The test system of the data set is ZFP-TF 8982-KRAB. The data set can be described thus: cell_activity. The note with it: rat DRG neurons, lentiviral; Nav1.8 mRNA vs GFP control; which of SEQ 2 (GAA) or SEQ 3 (CAA) is the rat site is not stated.

As to “GAAGAAGAATGAGAAGATG (double strand) [Nav1.8 target site (GAA variant)]”, the activity (fold repression) came to 10.
